Reference: patent publication US20140072613A1, “Compositions and Methods for Treating Cutaneous Scarring” (priority 2012, published 2014)

Columns and labels:
Assay in all cases: cell-based or functional assay
[1] = biological target: CHK2(h) (human) (UniProt O96017)
[2] = biological target: T1, CHK1(h) (human) (UniProt O14757)
T1 sequence (looked up): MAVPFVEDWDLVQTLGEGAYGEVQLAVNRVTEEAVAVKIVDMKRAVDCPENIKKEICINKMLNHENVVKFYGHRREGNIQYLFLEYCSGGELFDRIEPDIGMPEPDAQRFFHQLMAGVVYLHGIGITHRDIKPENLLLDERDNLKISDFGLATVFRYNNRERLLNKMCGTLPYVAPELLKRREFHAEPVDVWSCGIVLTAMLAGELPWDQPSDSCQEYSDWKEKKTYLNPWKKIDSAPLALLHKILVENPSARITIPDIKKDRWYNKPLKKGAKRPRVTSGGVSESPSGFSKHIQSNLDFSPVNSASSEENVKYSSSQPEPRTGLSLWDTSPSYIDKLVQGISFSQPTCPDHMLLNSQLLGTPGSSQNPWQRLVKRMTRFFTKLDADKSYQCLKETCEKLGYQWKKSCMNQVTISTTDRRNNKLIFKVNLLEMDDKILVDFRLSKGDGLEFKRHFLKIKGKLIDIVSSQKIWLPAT

[3] = biological target: PKCγ(h) (human) (UniProt P05129)
[4] = biological target: T2, Aurora-A(h) (human) (UniProt O14965)
T2 sequence (looked up): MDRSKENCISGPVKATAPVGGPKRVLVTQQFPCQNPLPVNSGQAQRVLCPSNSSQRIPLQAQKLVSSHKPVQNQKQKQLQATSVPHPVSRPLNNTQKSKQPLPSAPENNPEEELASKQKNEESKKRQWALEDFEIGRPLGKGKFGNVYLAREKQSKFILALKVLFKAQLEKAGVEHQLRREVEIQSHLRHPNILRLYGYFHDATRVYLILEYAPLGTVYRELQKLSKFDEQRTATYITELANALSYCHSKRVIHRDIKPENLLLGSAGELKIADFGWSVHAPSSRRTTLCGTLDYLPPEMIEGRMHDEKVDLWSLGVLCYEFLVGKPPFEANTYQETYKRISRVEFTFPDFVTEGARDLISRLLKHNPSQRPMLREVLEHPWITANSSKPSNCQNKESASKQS

[5] = biological target: FGFR3(h) (human) (UniProt P22607)
FGFR3(h) (human), sequence (P22607 397-806 limits assumed): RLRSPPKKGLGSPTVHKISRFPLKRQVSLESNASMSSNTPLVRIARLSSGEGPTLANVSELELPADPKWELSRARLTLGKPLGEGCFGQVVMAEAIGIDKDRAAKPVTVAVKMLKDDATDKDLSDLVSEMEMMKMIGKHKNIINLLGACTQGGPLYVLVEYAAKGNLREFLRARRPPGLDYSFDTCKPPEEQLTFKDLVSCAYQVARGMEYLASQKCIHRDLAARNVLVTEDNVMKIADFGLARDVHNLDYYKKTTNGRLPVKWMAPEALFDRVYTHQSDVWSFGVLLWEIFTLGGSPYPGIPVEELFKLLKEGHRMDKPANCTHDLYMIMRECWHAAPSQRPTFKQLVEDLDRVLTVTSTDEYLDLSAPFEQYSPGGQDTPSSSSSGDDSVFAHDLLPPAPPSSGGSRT

[6] = biological target: 6SK3β(h) (human) (UniProt P49841)
6SK3β(h) (human), sequence (P49841 whole entry): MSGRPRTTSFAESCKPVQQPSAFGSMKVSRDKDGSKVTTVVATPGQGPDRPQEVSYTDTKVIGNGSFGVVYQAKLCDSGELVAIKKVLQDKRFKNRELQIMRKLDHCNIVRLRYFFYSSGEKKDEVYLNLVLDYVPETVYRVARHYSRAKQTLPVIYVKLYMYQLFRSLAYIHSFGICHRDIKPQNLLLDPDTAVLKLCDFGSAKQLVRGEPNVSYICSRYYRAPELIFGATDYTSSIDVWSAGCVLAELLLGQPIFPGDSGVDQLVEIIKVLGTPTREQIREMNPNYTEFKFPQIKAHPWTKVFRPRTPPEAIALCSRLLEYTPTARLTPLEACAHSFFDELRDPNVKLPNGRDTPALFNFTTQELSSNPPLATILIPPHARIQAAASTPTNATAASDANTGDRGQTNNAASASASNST

[7] = biological target: IRAK1(h) (human) (UniProt P51617)
[8] = biological target: IR(h) (human) (UniProt P06213)
[9] = biological target: PDGFRα(h) (human) (UniProt P16234)
PDGFRα(h) (human), sequence (P16234 550-1089 limits assumed): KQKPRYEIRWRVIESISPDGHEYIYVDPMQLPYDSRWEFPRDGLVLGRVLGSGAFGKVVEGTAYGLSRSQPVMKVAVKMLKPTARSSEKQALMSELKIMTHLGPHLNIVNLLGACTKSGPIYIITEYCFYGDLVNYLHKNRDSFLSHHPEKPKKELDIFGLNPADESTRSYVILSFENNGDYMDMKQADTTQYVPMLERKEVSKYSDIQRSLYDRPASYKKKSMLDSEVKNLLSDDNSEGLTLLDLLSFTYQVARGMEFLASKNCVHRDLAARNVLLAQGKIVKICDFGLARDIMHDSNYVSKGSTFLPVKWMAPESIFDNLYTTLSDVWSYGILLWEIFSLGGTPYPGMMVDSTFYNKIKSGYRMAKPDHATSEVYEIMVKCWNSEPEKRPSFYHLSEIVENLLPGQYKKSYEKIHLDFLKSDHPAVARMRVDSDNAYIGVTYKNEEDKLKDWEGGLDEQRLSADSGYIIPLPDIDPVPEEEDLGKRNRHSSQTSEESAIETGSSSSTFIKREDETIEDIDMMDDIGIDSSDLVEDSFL

[10] = biological target: T3, Flt3(h) (human) (UniProt P36888)
T3 sequence (looked up): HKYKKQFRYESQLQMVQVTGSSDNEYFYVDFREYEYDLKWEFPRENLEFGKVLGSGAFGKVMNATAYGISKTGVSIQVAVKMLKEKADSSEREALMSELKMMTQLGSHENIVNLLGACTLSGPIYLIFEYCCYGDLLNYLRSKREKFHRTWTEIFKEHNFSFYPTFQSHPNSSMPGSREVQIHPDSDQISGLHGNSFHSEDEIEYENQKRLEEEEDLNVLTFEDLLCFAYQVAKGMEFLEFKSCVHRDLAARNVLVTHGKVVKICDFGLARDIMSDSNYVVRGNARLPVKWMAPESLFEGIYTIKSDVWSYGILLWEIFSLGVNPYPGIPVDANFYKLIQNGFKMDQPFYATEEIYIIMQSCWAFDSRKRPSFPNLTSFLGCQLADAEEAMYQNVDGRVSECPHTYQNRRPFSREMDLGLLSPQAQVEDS

[11] = biological target: Lck(h) (human) (UniProt P06239)
[12] = biological target: DAPK1(h) (human) (UniProt P53355)
DAPK1(h) (human), sequence (P53355 1-363 limits assumed): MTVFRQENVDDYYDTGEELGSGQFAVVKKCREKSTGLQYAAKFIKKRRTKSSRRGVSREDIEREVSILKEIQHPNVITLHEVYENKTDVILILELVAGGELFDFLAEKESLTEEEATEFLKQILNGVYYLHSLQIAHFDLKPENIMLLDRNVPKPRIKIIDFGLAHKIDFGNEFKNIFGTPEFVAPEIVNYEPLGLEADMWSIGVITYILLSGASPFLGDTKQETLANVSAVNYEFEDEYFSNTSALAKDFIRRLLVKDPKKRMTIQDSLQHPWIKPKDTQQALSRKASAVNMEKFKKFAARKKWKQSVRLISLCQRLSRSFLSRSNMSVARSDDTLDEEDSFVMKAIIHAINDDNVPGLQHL

[13] = biological target: IR(h), activated (human) (UniProt P06213)
[14] = biological target: Abl(h) (human) (UniProt P00519)
Abl(h) (human), sequence (P00519 27-1130 limits assumed): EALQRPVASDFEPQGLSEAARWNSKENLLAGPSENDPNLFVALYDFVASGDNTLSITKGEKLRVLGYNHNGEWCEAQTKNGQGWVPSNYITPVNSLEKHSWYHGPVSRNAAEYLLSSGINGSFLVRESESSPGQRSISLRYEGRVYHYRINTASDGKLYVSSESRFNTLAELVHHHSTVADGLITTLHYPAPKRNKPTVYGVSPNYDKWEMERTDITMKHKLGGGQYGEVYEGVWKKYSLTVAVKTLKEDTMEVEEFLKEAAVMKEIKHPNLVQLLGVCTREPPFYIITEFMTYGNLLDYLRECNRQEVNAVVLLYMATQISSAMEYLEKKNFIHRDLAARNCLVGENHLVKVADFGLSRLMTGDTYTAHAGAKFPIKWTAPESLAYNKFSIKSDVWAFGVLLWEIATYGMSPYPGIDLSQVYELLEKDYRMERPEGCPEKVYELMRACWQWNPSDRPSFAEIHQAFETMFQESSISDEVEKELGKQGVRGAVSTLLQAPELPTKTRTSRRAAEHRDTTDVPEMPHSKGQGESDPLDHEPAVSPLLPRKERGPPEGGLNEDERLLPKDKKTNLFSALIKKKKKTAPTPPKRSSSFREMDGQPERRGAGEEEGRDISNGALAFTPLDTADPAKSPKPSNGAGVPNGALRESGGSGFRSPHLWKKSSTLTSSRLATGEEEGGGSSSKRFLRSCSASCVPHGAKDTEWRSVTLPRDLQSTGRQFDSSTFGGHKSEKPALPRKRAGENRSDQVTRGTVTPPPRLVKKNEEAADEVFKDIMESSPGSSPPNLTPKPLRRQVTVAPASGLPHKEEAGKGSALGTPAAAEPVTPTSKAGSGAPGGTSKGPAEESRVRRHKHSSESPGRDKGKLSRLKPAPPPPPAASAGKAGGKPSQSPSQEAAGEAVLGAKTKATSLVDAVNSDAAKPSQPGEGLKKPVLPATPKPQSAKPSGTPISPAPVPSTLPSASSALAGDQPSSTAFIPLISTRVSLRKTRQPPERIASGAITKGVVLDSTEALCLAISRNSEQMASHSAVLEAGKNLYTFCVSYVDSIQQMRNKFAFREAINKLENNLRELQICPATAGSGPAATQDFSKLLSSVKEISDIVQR

[15] = biological target: Plk3(h) (human) (UniProt Q9H4B4)
Plk3(h) (human), sequence (Q9H4B4 58-340 limits assumed): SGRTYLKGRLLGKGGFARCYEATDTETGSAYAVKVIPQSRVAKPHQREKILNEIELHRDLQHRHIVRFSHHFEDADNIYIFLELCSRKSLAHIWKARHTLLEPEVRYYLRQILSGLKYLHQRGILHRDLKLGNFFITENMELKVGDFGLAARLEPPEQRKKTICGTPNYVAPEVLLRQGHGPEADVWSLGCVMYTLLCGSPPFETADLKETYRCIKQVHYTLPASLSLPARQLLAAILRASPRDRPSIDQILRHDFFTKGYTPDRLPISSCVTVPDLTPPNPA

[16] = biological target: EphB3(h) (human) (UniProt P54753)
EphB3(h) (human), sequence (P54753 581-998 limits assumed): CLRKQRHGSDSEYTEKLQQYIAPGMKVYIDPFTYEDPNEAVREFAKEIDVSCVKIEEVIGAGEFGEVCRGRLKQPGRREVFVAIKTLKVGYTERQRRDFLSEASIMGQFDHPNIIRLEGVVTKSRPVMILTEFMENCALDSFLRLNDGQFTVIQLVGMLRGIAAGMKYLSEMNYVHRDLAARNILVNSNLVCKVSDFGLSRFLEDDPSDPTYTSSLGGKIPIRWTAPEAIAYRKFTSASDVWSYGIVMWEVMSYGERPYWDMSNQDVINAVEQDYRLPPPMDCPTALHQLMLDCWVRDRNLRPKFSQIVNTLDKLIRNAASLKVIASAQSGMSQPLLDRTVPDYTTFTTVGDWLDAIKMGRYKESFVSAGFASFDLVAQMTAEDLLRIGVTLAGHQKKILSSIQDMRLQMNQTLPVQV

[17] = biological target: T4, Txk(h) (human) (UniProt P42681)
T4 sequence (looked up): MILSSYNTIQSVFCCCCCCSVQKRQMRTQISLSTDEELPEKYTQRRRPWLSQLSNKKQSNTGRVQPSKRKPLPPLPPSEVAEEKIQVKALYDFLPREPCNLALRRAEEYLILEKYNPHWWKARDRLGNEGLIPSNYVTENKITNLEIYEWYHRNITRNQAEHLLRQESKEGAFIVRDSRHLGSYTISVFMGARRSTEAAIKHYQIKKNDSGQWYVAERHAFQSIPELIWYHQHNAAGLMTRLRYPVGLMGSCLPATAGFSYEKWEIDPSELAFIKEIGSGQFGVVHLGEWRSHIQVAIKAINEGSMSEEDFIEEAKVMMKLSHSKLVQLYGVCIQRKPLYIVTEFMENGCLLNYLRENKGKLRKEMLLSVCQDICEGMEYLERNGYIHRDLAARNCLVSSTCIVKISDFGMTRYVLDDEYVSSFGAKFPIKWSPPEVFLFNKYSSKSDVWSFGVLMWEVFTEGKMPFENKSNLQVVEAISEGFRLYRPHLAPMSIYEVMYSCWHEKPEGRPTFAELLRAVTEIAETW

CHK2(h) (human), sequence (O96017 5-543 limits assumed): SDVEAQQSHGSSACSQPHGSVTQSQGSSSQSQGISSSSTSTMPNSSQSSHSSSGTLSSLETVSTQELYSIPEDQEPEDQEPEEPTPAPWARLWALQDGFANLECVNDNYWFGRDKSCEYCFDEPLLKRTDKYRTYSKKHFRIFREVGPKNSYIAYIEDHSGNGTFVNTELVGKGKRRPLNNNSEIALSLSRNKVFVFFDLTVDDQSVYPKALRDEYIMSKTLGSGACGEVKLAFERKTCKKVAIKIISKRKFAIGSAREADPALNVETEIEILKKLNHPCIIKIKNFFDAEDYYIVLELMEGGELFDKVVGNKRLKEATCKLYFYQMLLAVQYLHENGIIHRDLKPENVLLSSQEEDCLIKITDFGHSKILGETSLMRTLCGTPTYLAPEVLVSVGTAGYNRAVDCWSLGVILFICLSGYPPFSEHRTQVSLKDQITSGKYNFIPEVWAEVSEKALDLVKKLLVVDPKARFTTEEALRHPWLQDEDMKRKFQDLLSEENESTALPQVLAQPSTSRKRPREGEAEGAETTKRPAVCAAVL

Work on MMI-0500 (peptide) yielded a % activity, 100 µM [1] of 13%, a % activity, 100 µM [2] of 65% and a % activity, 100 µM [3] of 6%. For the same substance, the % activity, 100 µM [4] was 110%, the % activity, 100 µM [5] was 10% and the % activity, 100 µM [6] was 238%. The % activity, 100 µM [7] was 5%, the % activity, 100 µM [8] was 95% and the % activity, 100 µM [9] was 40%. It also gave a % activity, 100 µM [10] of 17%, a % activity, 100 µM [11] of 359% and a % activity, 100 µM [12] of 0%. It also gave a % activity, 100 µM [13] of 90%, a % activity, 100 µM [14] of 16% and a % activity, 100 µM [15] of 122%. For the same substance, the % activity, 100 µM [16] was 79% and the % activity, 100 µM [17] was 10%.
